Measured values: patent US12630599B2, “CA2 compositions and methods for tunable regulation” (Obsidian Therapeutics, Inc., priority 2019, dated 2026)

B1: OT-002011: construct transduced into T cells for the study of the effect of mbIL12 on CAR activity (protein)
chain: IWELKKDVYVVELDWYPDAPGEMVVLTCDTPEEDGITWTLDQSSEVLGSGKTLTIQVKEFGDAGQYTCHKGGEVLSHSLLLLHKKEDGIWSTDILKDQKEPKNKTFLRCEAKNYSGRFTCWWLTTISTDLTFSVKSSRGSSDPQGVTCGAATLSAERVRGDNKEYEYSVECQEDSACPAAEESLPIEVMVDAVHKLKYENYTSSFFIRDIIKPDPPKNLQLKPLKNSRQVEVSWEYPDTWSTPHSYFSLTFCVQVQGKSKREKKDRVFTDKTSATVICRKNASISVRAQDRYYSSSWSEWASVPCSGGGGSGGGGSGGGGSRNLPVATPDPGMFPCLHHSQNLLRAVSNMLQKARQTLEFYPCTSEEIDHEDITKDKTSTVEACLPLELTKNESCLNSRETSFITNGSCLASRKTSFMMALCLSSIYEDLKMYQVEFKTMNAKLLMDPKRQIFLDQNMLAVIDELMQALNFNSETVPQKSSLEEPDFYKTKIKLCILLHAFRIRAVTIDRVMSYLNASGSGSGSGSGSGSGSGSGSGSGSGSGSGSGSLDFACDLLPSWAITLISVNGIFVICCLTYCFAPRCRERRGS
B2: OT-002111: construct transduced into T cells for the study of the effect of mbIL12 on CAR activity (protein)
chain: IWELKKDVYVVELDWYPDAPGEMVVLTCDTPEEDGITWTLDQSSEVLGSGKTLTIQVKEFGDAGQYTCHKGGEVLSHSLLLLHKKEDGIWSTDILKDQKEPKNKTFLRCEAKNYSGRFTCWWLTTISTDLTFSVKSSRGSSDPQGVTCGAATLSAERVRGDNKEYEYSVECQEDSACPAAEESLPIEVMVDAVHKLKYENYTSSFFIRDIIKPDPPKNLQLKPLKNSRQVEVSWEYPDTWSTPHSYFSLTFCVQVQGKSKREKKDRVFTDKTSATVICRKNASISVRAQDRYYSSSWSEWASVPCSGGGGSGGGGSGGGGSRNLPVATPDPGMFPCLHHSQNLLRAVSNMLQKARQTLEFYPCTSEEIDHEDITKDKTSTVEACLPLELTKNESCLNSRETSFITNGSCLASRKTSFMMALCLSSIYEDLKMYQVEFKTMNAKLLMDPKRQIFLDQNMLAVIDELMQALNFNSETVPQKSSLEEPDFYKTKIKLCILLHAFRIRAVTIDRVMSYLNASGSGSGSGSADFPTPSISDFEIPTSNIRRIICSTSGGFPEPHLSWLENGEELNAINTTVSQDPETELYAVSSKLDFNMTTNHSFMCLIKYGHLRVNQTFNWNTTKQEHFPDNGS

Tested on: Nalm-6 cells
Assay: 48 hour cytotoxicity assay, T cells co-cultured with Nalm-6 cells (NucRed), Incucyte (Example 4, Table 14)
Type: cell-based
Conditions: for Average Total Nalm6-NucRed Area after 48 hour at E:T ratio of 3:1: E:T ratio 3:1, 48 hour; for Average Total Nalm6-NucRed Area after 48 hour at E:T ratio of 10:1: E:T ratio 10:1, 48 hour
Description: The following constructs were transduced into T cells: OT-001356 (nucleic acid sequence SEQ ID NO: 6081 encodes two amino acid sequences, first is SEQ ID NO: 6082 (nucleic acid sequence SEQ ID NO: 6083) second is SEQ ID NO: 6084 (nucleic acid sequence SEQ ID NO: 6085)), OT-001356 (amino acid sequence provided as SEQ ID NO: 6092 and nucleic acid is SEQ ID NO: 6093) OT-001407 (amino acid sequence provided as SEQ ID NO: 6086 and nucleic acid is SEQ ID NO: 6087), OT-001895, OT-002011, OT-002111, OT-0020%, OT-02171. The cells were expanded for 10 days and utilized for cytotoxicity assays. Percentage of CAR positive cells obtained with each of the constructs was as follows: OT-001356: 45.3%; OT-001407, OT-001895: 29.4%, OT-002011: 24.3%, OT-002111: 19.6%, OT-0020%: 6.08%, OT-002171: 13.3%. For cytotoxicity assays, T cells were thawed and co-cultured with Nalm-6 cells (stably expressing NucRed) at different T cells to Nalm-6 cell culture ratios. Target cell viability was determined by measuring cellular fluorescence over time using an Incucyte assay and the results are shown in Table 14.

Row | Molecule | Average Total Nalm6-NucRed Area after 48 hour at E:T ratio of 3:1 | Average Total Nalm6-NucRed Area after 48 hour at E:T ratio of 10:1
1 | B1 | 59,465 | 44,301
2 | B2 | 42,520 | 42,899
